Test: soluble on expression in E. coli; label from the status in PepcDB or PDB records

Row | Sequence | soluble on expression in E. coli
1 | SVERIYQKKTQLEHILLRPDTYIGSVELVTQQMWVYDEDVGINYREVTFVPGLYKIFDEILVNAADNKQRDPKMSCIRVTIDPENNLISIWNNGKGIPVVEHKVEKMYVPALIFGQLLTSSNYDDDEKKVTGGRNGYGAKLCNIFSTKFTVETASREYKKMFKQTWMDNMGRAGEMELKPFNGEDYTCITFQPDLSKFKMQSLDKDIVALMVRRAYDIAGSTKDVKVFLNGNKLPVKGFRSYVDMYLKDKLDETGNSLKVIHEQVNHRWEVCLTMSEKGFQQISFVNSIATSKGGRHVDYVADQIVTKLVDVVKKKNKGGVAVKAHQVKNHMWIFVNALIENPTFDSQTKENMTLQPKSFGSTCQLSEKFIKAAIGCGIVESILNWVKFKAQVQLNKKCS | soluble
2 | SVFYFTSSSVNSSAYTIYMGKDKYENEDLIKHGWPEDIWFHVDKLSSAHVYLRLHKGENIEDIPKEVLMDCAHLVKANSIQGCKMNNVNVVYTPWSNLKKTADMDVGQIGFHRQKDVKIVTVEKKVNEILNRLEKTKVERFPDLAAEKECRDREERNEKKAQIQEMKKREKEEMKKKREMDELRSYSSLMKVENMSSNQDGNDSDEFM | soluble
3 | SVIGRIHSFESCGTVDGPGIRFITFFQGCLMRCLYCHNRDTWDTHGGKEVTVEDLMKEVVTYRHFMNASGGGVTASGGEAILQAEFVRDWFRACKKEGIHTCLDTNGFVRRYDPVIDELLEVTDLVMLDLKQMNDEIHQNLVGVSNHRTLEFAKYLANKNVKVWIRYVVVPGWSDDDDSAHRLGEFTRDMGNVEKIELLPYHELGKHKWVAMGEEYKLDGVKPPKKETMERVKGILEQYGHKVMF | soluble
4 | SVTASRYYPQLMSLVGNVLRFLPAFVRMKQLISEHYVGAVMICDARIYSGSLLSPSYGWICDELMGGGGLHTMGTYIVDLLTHLTGRRAEKVHGLLKTFVRQNAAIRGIRHVTSDDFCFFQMLMGGGVCSTVTLNFNMPGAFVHEVMVVGSAGRLVARGADLYGQKNSATQEELLLRDSLAVGAGLPEQGPQDVPLLYLKGMVYMVQALRQSFQGQGDRRTWDRTPVSMAASFEDGLYMQSVVDAIKRSSRSGEWEAVEVLTEEPDTNQNLCEALQRNNL | soluble
5 | SYEQLKGEWNRKSPNLSKCGEELGRLKLVLLELNFLPTTGTKLTKQQLILARDILEIGAQWSILRKDIPSFERYMAQLKCYYFDYKEQLPESAYMHQLLGLNLLFLLSQNRVAEFHTELERLPAKDIQTNVYIKHPVSLEQYLMEGSYNKVFLAKGNIPAESYTFFIDILLDTIRDEIAGCIEKAYEKILFTEATRILFFNTPKKMTDYAKKRGWVLGPNNYYSFASQQQKPEDTTIPSTELAKQVIEYARQLEMIV | soluble
6 | TANKRHYLEKVSHQGIISALAFDQRGALKQMMAAHQEGEATVTQIETLKVLVSEELTPYASSILLDPEYGLLATKVRANQTGLLLAYEKTGYDATTTSRLPDCLVEWSVKRLKAAGADAIKFLLYYDVDGDEQINLQKQAYIERIGSECTAEDIPFFLELLSYDERISDNNSAAYAKLKPHKVNGAMSVFSDKRFGVDVLKVEVPVNMAYVEGFTEGEVHYSQAEAIKAFQDQEAASHLPYIYLSAGVSAKLFQETLYFAAAAGAQFSGVLCGRATWAGSVPVYITKGEDEARKWLCTEGFQNIDELNRVLEETASPWTEKI | not soluble
7 | TATNHQGLPAVDSEILEMPPEKADGVVEGIDVNGPKAQLMLRYPDGKREQITLPEQAKLLALVKHVQSKGYPNERFELLTNFPRRKLSHLDYDITLQEAGLCPQETVFVQE | soluble
8 | TCCHGHGHGHDHGHRHAPRPAVAAIGTLAGNAELRWSDLRIEAMDCPTEERLIRDALGRQPAVESLEFNLMQRLLRVQHRFDSVEPLQKLIAGLGMQAVPLDAGENTDGPSQAPA | not soluble
9 | TDVDAFTLGEDLAYTPGDVIYQNDLIQLIQYKASTKKVNEVPLLFIPPFINKYYVLDMDEQKSLIKWAVGQGHTVFVISWINPDKTLSHKGFNDYMKEGPIASLDVIEELTKSKKVNVVGYCIGGTLLATTQSYLLAKGDTRINSLTFLTTLLDFEEPGEIGVYLSEKMLPFLKKDIKEKGLLDGRVLGLAFSMLRENSLFWSYFVNNYLKGKDPAPFDILYWNSDSSNLPAETFDFYMTNTYQENNLIKDGAVEVEGVPIELSKIDTPSYFLATIADHIVLWQASYKGAKALSGPTRFVLAGSGHL | not soluble
10 | THGWNFQVSANAAYNKNEVMDLKNGGARIWSGKYFNQEGYAINSIGGYIAEGLFKTEEEVANSATIPGTDTAPGDIKYRDINNDGKIDGEDRVYIGNTMPKWTFGLNLFAEWKGLDATFLFQGAADVQGYLAGPGVVGEMIGAKGKPSYMYRDCWDAETNPNGKFPRAFSSYRQNNSIYNPSSFWIVNSSYLRLKNFQLGYTLPKEWCNMMGISRIRVYYSGQNLLTFTKFDKGFDPESPEGGSSYPQVKTNTFGLNITF | not soluble
11 | TKAVTFYEDINYGGASVSLQPGNYTLSQLNTAKIPNDWMTSLKVPSGWTVDVYENDNFTGTKWTYTSDTPWVGNDANDKMTSVKIYST | soluble
12 | TKDFEWKTTVTASHNANKLLSLSNDLYETSNQIDHAYLGEPINLSTQRMEVGRSMGQFYGMKSVGVSENGLWMVENTKTGEIEEFTDNMLSNDDYRQYLGNALPKLYLGWNNSFRYKNFDLSFQMTGQFGFKILNEPRAYYENNSIAYNRLKSVQKAPYGGQYTLSTAQKQTFVSYYLEDGDFLKMTNITLGYNIPLKSSKFVKNIRAYVSADNLFCITGYDGLDPEMSNGDIWSLGIDWRDKYPSTRSFTFGLNVSF | not soluble
13 | TKNWSWTASANAAWQKVRIKNLTLTPGAPSPDTEVGPWIDAYQMQVFSTDYAPYSFYLYKQLYDAETGQPIEGLYADLDGDGEITNKDRYHHHSPAPDWILGFSTSLRYKKWTLSTSLRANIGGYIFNGMAMNTGAWETMSYNDYQLNNLNRSFLDTRFTKRQFLSDHYLENASFLKMDNLQLSYDFGRIYKTIGLHASAMVQNVFTVTKYKGVDPETANGVDTSVYPRPRTYSITIGLNF | not soluble
14 | TMEPERLFNLIVKTTVDTLRAQIGYIILYSPREKNLQVTTLLGHTIPEGSTTTLPMKQSSVSTWVIENRRPLLITTMDEWPQFDRYSSLGYERRTLICAPLQIKDEIIGTITVVNKDDNSTYTIQELELLSTIAAQASIAIKNAQLYDEQQATYLHTIQALVSAIEAS | not soluble
15 | TMSSCVSSQPSSNRAAPQDELGGRGSSSSESQKPCEALRGLSSLSIHLGMESFIVVTECEPGCAVDLGLARDRPLEADGQEVPLDSSGSQARPHLSGRKLSLQERSQGGLAAGGSLDMNGRCICPSLPYSPVSSPQSSPRLPRRPTVESHHVSITGMQDCVQLNQYTLKDEIGKGSYGVVKLAYNENDNTYYAMKVLSKKKLIRQAGFPRRPPPRGTRPAPGGCIQPRGPIEQVYQEIAILKKLDHPNVVKLVEVLDDPNEDHLYMVFELVNQGPVMEVPTLKPLSEDQARFYFQDLIKGIEYLHYQKIIHRDIKPSNLLVGEDGHIKIADFGVSNEFKGSDALLSNTVGTPAFMAPESLSETRKIFSGKALDVWAMGVTLYCFVFGQCPFMDERIMCLHSKIKSQALEFPDQPDIAEDLKDLITRMLDKNPESRIVVPEIKLHPWVTRHGAEPLPSEDENCTLVEVTEEEVENSVKHIPSLATVILVKTMIRKRSFGNPFEGSRREERSLSAPGNLLTKKPTRECESLSELKGTKKKKGLDSMTSTVAAGWLDRRV | soluble
16 | TNADYPALYLANFLLGTSETSRLWHRVRETEGLSYNVRSNLSVSSYEPSANWTIYAIYAPQNRARLEKAISEELARALKDGFTDQEVRDGVVALLNYRNLARAQDDVLADTWVNYMQTGRSFQWSADMDRKLEALTPDQVNAALRKYLKPDAFSTAVAGDFTKKSAP | not soluble
17 | TNTEEFCSGCHAPIVKEIQETIHYSNRSGVRAICSDCHVPHNWTDKIVRKVQASKELFAHYVTKTIDTEEKFKERRAHLAEREWHRMKENNSQECRNCHEFDYMDFSEQGPRSAKQHSTALASGEKTCVDCHKGIAHKL | not soluble
18 | TPAQLISIAVTPINPSVAKGLIRQFKATGTYTDHSVQDVTALATWSSSNPGKAMVNNVTGSVTTVATGNTNIKATIDSISGSSVLNVTPALLTSIEITPTINSITHGLTKQFKATGIFSDKSTQNLTQLVTWISSDPSKIEIENTSGKKGIATASKLGSSNIKAVYKFIQSSPIPITVTDLKLKSITISPSSSSIAKGLTQQFKAIGTFIDGSEQEITNLVTWYSSKSDVAPINNAANAKGLATALSIGSSNISAIYNSISSNKINFNVSAATLDSIKINPVNNNIAKGLTQQYTALGVYSDSTIQDISDSVTWSSSNSDSISISNSTETKGKATALQIGNSKITATYNSISENIDITVSAATL | not soluble
19 | TPLSQSSSSKNASDVSGSIQPVDSKSGLQMLFSGYRGIGGVQTLDLQQMSSDIPNAETKTVADQVINAWKQMKYTPFGRSTGSFTIRLNPEHLGFVTIKLTNENGMFQSKIIASSQSAKELLEQHLPQLKQSLPNMAVQIDRFTLPVQS | not soluble
20 | TQYKYAWIINGLTKSTGETYIPTAADDGFNIRLEVTGQDAYGQVTEMQYVVYAFSKVETIFSDMYAFAALKTDGSVVTWGYSDYGGDSSSVAGQLTSGVKVIDSTSSAFAAIKEDGSVVTWGDSPYGGDSSSVAGKLTSGVKVIYSNSSAFAAVKQDGSVVTWGSYGGDSSSVAGQLTSGVKVIYSTDSEFGAFAAVKEDGSVVTWGNSPYGGDSSSVAGQLTSGVKVIYSTNNAFAAVKEDGSVVTWGDSGAGGDSSSVAGQLTSGVKVIYSTNNAFAAVKEDGSVVTWGGYGGDSSSVAGQLTSGVKVIYSTNNAFAAVKEDGSVVTWGDSGNGGDSSSVAGQLTSGVKVIDSTYSAFAAVKEDGSVVAWGNSGYGGDSSSVAGQLTSGVKVIDSTTSAFAVVKEDGSVVTWGGSFYGGDSSSVAGQLTSGVKVIYSTSSAFAVVKEDGSVVTWGGSFYGGDSSSVADKLAPNLFLIETSIN | not soluble
21 | TRAFKWTTNFNISFNKNKVLALSENQTALLTAAQFDQNYNGQSSYIAKVGLPMGLMYGYVYEGTYKYDDFNKSGNSYSLKPGVPHYSTETNTQPGMPKYADLNGDGVVDSNDRTIIGRGLPIHTGGFTNNFEYKGIDLSIFFQWSYGNDIMNANRLFFESSNNRSRELNQFASYANRWTPENPTSDIPAATNSSSNRVISSRIIEDGSYLRLKNVTVGYTFPAKLVKKWKIDKARVYVAAQNLWTCTGYSGYDPEVSVRNSALTPGLDYSSYPRAYSISFGVSLGF | not soluble
22 | TSADGLKLVANYLEAPSPSNTTIILAHGYRGKSGKVEMAGLARMYNQKFGYNVLMPDARAHGESEGKNIGFGWPERKDYVQWTNQVLDKNGDDTEIVLHGVSMGSSTVLMTSAEKLPKQVKSIIADCGYTSMDAELAYQLKAMFHLPKFPIIPMASLINKVKEGFFFSEASAINAVAETDLPIFYIHGDSDAFVPTSMVEELYDATKSYKEKWVVKGAEHGQAFTVEPETYEEKVRQFLTKTM | not soluble
23 | TSDDHVPVDITDLLDRAAHDAARIYPDLDVSLVPSPTCIIVGLPAGLRLAVDNAIANAVKHGGATLVQLSAVSSRAGVEIAIDDNGSGVPEGERQVVFERFSRGSTASHSGSGLGLALVAQQAQLHGGTASLENSPLGGARLVLRLPGPS | soluble
24 | TTNKPIVLSTWNFGLHANVEAWKVLSKGGKALDAVEKGVRLVEDDPTERSVGYGGRPDRDGRVTLDACIMDENYNIGSVACMEHIKNPISVARAVMEKTPHVMLVGDGALEFALSQGFKKENLLTAESEKEWKEWLKTSQYKPIVNIENHDCIGMIALDAQGNLSGACTTSGMAYKMHGRVGDSPIIGAGLFVDNEIGAATATGHGEEVIRTVGTHLVVELMNQGRTPQQACKEAVERIVKIVNRRGKNLKDIQVGFIALNKKGEYGAYCIQDGFNFAVHDQKGNRLETPGFALK | soluble
